Target: Phospholipase A1 (PlaA1) from Serratia marcescens, purified (Serratia marcescens)
Experiment: SPR; Biacore T200; PlaA1 as ligand (diluted to 20 µg/mL), ∆N27 PlaS as analyte at 0, 0.156, 0.3125, 0.625, 1.25, 2.5 and 5 µM

N-terminal truncated PlaS (∆N27 PlaS) from Serratia marcescens, purified (domain or fragment)
Kd: 8.49 nM
koff: 1.26e-05 s⁻¹
kon: 1480 M⁻¹ s⁻¹

Source: publication PMC11199421
